Reference: the supplement of paper PMC10899765

Columns and labels:
Details in all cases: 20 nM; 72 h
[1] = system: MCF10A; assay: percent viability (nuclei count relative to siNT); higher = more viable cells
Method: (§1)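 After 72 h, cells were fixed and stained with Hoechst and anti-fibrillarin, and nucleoli per nucleus were counted with CellProfiler. Values are plate-adjusted percent effect for the one-nucleolus and 5+ nucleoli phenotypes, normalised to siNT (0%) and to the positive controls siNOL11 or siKIF11 (100%), as the mean of biological triplicates. Percent viability is the nuclei count relative to siNT.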

[2] = system: MCF10A; assay: 5+ nucleoli phenotype percent effect (relative to siNT 0% and siKIF11 100%); higher = more cells with five or more nucleoli
Method: as §1

[3] = system: MCF10A; assay: one-nucleolus phenotype percent effect (relative to siNT 0% and siNOL11 100%); higher = more cells with one nucleolus (ribosome biogenesis inhibition)
Method: as §1

Sequence	percent viability [1] [%]	5+ nucleoli phenotype percent effect [2] [%]	one-nucleolus phenotype percent effect [3] [%]
UGCUUCCUUUCAGAGGGU [hsa-miR-516b-3p]	78.4	-29.9	8.29
UGCUUCCUUUCUCAGCUG [hsa-miR-7162-5p]	64.9	-13.8	0.399
UGGAAAAAACUGGUGUGUGCUU [hsa-miR-3148]	35.9	-1.39	-7.81
UGGAAGACUAGUGAUUUUGUUGU [hsa-miR-7-5p]	51.8	-32.4	25.5
UGGAAGGAGGUUGCCGGACGCU [hsa-miR-4533]	46.4	-14.3	9.34
UGGAAGGGAGAAGAGCUUUAAU [hsa-miR-3202]	21.6	-35.3	62.8
UGGAAUGUAAAGAAGUAUGUAU [hsa-miR-1]	38.5	-15.8	8.45
UGGAAUGUAAGGAAGUGUGUGG [hsa-miR-206]	48.8	-23.7	48.4
UGGACCUCUCCUCCCCAG [hsa-miR-6861-3p]	40.5	7.71	2.35
UGGACGGAGAACUGAUAAGGGU [hsa-miR-184]	43	80.3	-17.7
UGGACUGCCCUGAUCUGGAGA [hsa-miR-1288]	33	2.11	7.88
UGGAGACGCGGCCCUGUUGGAGU [hsa-miR-139-3p]	68	-24.5	20.9
UGGAGAGAAAGGCAGUA [hsa-miR-4306]	13.5	31.6	-8.22
UGGAGAGAAAGGCAGUUCCUGA [hsa-miR-185-5p]	21.7	-10.1	5.33
UGGAGAGAGAAAAGAGACAGAAG [hsa-miR-4644]	74.5	39.4	-24.6
UGGAGAUCCAGUGCUCGCCCGAU [hsa-miR-4683]	56.7	-20.1	24.4
UGGAGGAGAAGGAAGGUGAUG [hsa-miR-765]	21.1	16.3	26.5
UGGAGUGUGACAAUGGUGUUUG [hsa-miR-122-5p]	52.7	14.4	-11.4
UGGAGUUAAGGGUUGCUUGGAGA [hsa-miR-4653-3p]	12.9	-39.9	47.6
UGGAUAUGAUGACUGAAA [hsa-miR-4791]	71.5	4.66	-7.67
UGGAUGACAGUGGAGGCCU [hsa-miR-6744-5p]	20.5	-19.1	37.8
UGGAUGUGGAAGGAGUUAUCU [hsa-miR-4764-5p]	7.49	-8.02	-0.862
UGGAUUUCUUUGUGAAUCACCA [hsa-miR-876-5p]	143	24.8	-21.7

Sequence	percent viability [1] [%]	5+ nucleoli phenotype percent effect [2] [%]	one-nucleolus phenotype percent effect [3] [%]
UGGAUUUUUGGAUCAGGGA [hsa-miR-1290]	51	-26.7	7
UGGCAAACGUGGAAGCCGAGA [hsa-miR-4470]	15.8	-21.5	61
UGGCAGGGAGGCUGGGAGGGG [hsa-miR-1207-5p]	24.4	-30.5	24.5
UGGCAGUGUAUUGUUAGCUGGU [hsa-miR-449a]	14	-16.3	36.9
UGGCAGUUACUUUUGCACCAG [hsa-miR-548au-3p]	5.53	-17.4	31.4
UGGCCAAAAAGCAGGCAGAGA [hsa-miR-3926]	31.6	0.491	11.5
UGGCCCAACCUAUUCAGUUAGU [hsa-miR-3136-3p]	140	34.8	-25.2
UGGCCCAAGACCUCAGACC [hsa-miR-7155-3p]	35.1	18.5	11.3
UGGCCCGGCGACGUCUCACGGUC [hsa-miR-4745-3p]	58.7	45	-29.1
UGGCCCUGACUGAAGACCAGCAGU [hsa-miR-1291]	51	23.5	5.12
UGGCCCUUUGUACCCCUCCAG [hsa-miR-6851-3p]	49.2	54.7	-21.4
UGGCCGGAUGGGACAGGAGGCAU [hsa-miR-4743-5p]	25.6	-11.6	20.6
UGGCGAUUUUGGAACUCAAUGGCA [hsa-miR-8053]	36.7	6.04	4.42
UGGCGGCGGUAGUUAUGGGCUU [hsa-miR-4467]	30.8	-36	39.9
UGGCGGGGGUAGAGCUGGCUGC [hsa-miR-6787-5p]	23.7	-19.2	30
UGGCUCAGUUCAGCAGGAACAG [hsa-miR-24-3p]	26.5	-17	2.42
UGGCUGCUUCCCUUGGUCUCCAG [hsa-miR-6762-3p]	20.3	-10.9	44
UGGCUGUUGGAGGGGGCAGGC [hsa-miR-4687-3p]	23.1	-1.42	25.6
UGGCUUCUCUUGCACACCCAG [hsa-miR-6815-3p]	19.9	-12.3	62.9
UGGCUUUUAACUUUGAUGGC [hsa-miR-3119]	17.4	-21.8	56.7
UGGGAAAGACAAACUCAGAGUU [hsa-miR-6733-5p]	23.6	8.82	5.71
UGGGAAAGAGAAAGAACAAGUA [hsa-miR-6739-5p]	51.5	33	-11.2
